In PMC1351370:
Like-named read-outs stand apart in the source and are kept apart here.

Columns and labels:
[1] = molecular target: T1, HIV-1 nucleocapsid protein NC (wild type) (HIV-1 pNL4-3, UniProt P12493 378-432); test: tryptophan fluorescence quenching
[2] = molecular target: T1, HIV-1 nucleocapsid protein NC (wild …); test: competition
[3] = molecular target: T1, HIV-1 nucleocapsid protein NC (wild …); test: tryptophan fluorescence quenching; remark: listed apart in the source
[4] = molecular target: T1, HIV-1 nucleocapsid protein NC (wild …); test: competition; remark: listed apart in the source
[5] = molecular target: T1, HIV-1 nucleocapsid protein NC (wild …); test: SPR

Work on TGTGTGTG (ssDNA) [(TG)4] yielded a Kd [1] of 4.7 ± 0.67 nM, an IC50 [2] of 264 ± 101 nM and a Kd [3] of 3.4 ± 0.07 nM.

In the case of AAAAAAAAAAAAAAAAAAAAAAAAAAAAAA (ssDNA) [(A)30], the IC50 [4] is reported as 6680 ± 785 nM.

AAAAAAAA (ssDNA) [(A)8]: no binding [5].

Work on TGTGTGTGTGTGTGTGTGTG (ssDNA) [(TG)10] yielded an IC50 [4] of 37 ± 2.73 nM.
